# In publication PMC9888386 (The Journal of Clinical Investigation, 2023):
# B1: truncated NRF2 (NRF2^ΔDLG) (natural protein)
# chain: MMDLELPPPGLPSQQDMDLIDILWRQDIVSREVFDFSQRRKEYELEKQKKLEKERQEQLQKEQEKAFFAQLQLDEETGEFLPIQPAQHIQSETSGSANYSQVAHIPKSDALYFDDCMQLLAQTFPFVDDNEVSSATFQSLVPDIPGHIESPVFIATNQAQSPETSVAQVAPVDLDGMQQDIEQVWEELLSIPELQCLNIENDKLVETTMVPSPEAKLTEVDNYHFYSSIPSMEKEVGNCSPHFLNAFEDSFSSILSTEDPNQLTVNSLNSDATVNTDFGDEFYSAFIAEPSISNSMPSPATLSHSLSELLNGPIDVSDLSLCKAFNQNHPESTAEFNDSDSGISLNTSPSVASPEHSVESSSYGDTLLGLSDSEVEELDSAPGSVKQNGPKTPVHSSGDMVQPLSPSQGQSTHVHDAQCENTPEKELPVSPGHRKTPFTKDKHSSRLEAHLTRDELRAKALHIPFPVEKIINLPVVDFNEMMSKEQFNEAQLALIRDIRRRGKNKVAAQNCRKRKLENIVELEQDLDHLKDEKEKLLKEKGENDKSLHLLKKQLSTLYLEVFSMLRDEDGKPYSPSEYSLQQTRDGNVFLVPKSKKPDVKKN
# Biological target: T1, KEAP1 (microscale thermophoresis assay) (UniProt Q14145 1-624)
# T1 construct: KEAP1 as used in the microscale thermophoresis assay; May be the same as GST-KEAP1-WT
# T1 sequence (Q14145 whole entry): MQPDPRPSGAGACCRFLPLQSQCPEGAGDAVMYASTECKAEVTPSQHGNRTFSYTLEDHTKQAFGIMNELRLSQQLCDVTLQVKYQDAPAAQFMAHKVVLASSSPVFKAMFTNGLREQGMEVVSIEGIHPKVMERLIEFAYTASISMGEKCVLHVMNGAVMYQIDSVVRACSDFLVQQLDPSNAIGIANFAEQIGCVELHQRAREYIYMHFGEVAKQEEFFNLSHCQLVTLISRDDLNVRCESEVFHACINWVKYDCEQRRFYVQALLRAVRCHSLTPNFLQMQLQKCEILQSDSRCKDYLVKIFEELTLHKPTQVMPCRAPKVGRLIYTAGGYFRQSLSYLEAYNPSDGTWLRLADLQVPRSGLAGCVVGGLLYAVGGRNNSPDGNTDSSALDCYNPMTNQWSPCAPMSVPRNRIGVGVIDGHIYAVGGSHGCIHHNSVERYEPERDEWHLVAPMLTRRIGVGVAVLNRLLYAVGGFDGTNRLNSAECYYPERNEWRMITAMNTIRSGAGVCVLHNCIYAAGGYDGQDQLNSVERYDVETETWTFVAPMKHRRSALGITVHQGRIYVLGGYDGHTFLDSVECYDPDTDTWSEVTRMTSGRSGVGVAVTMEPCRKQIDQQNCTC
# Assay: MST; microscale thermophoresis; conditions in the Supplemental Methods, not shown
binder,measurement,value
B1,Kd,5.28 µM
